In patent publication US20040096935A1:
Values joined by “and” are separate entries in the source; they are usually repeats but may differ in a detail not shown here. Equal entries are not always repeated.

Legend:
[1] = target: IL-17 receptor (immobilised receptor of the first BIAcore experiment of Example 8) (UniProt Q96F46); assay: BIAcore SPR; IL-17 (R&D) at 25 ug/mL over immobilised receptor
[2] = target: IL-17 receptor (immobilised receptor of the first BIAcore experiment of Example 8) (UniProt Q96F46); assay: BIAcore SPR; conditioned CHO supernatant over immobilised receptor; IL-20 concentration estimated ~25 ug/mL; pC4 vector control medium ~20 RU

Sequence of recombinant human IL-17 (R&D Systems) (Q16552 20-155 limits assumed): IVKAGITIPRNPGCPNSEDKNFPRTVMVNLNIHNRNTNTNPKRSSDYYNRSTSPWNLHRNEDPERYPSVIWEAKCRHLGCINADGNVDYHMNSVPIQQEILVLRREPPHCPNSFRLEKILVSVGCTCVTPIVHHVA

binding response (RU) [1] [RU] | binding response (RU) [2] | Molecule
60 | – | recombinant human IL-17 (R&D Systems) (from UniProt Q16552 20-155) (ligand)
– | 115 RU and 65 RU | recombinant human IL-20 expressed in CHO cells (ligand) RSPKSKRKGQGRPGPLAPGPHQVPLDLVSRMKPYARMEEYERNIEEMVAQLRNSSELAQRKCEVNLQLWMSNKRSLSPWGYSINHDPSRIPVDLPEARCLCLGCVNPFTMQEDRSMVSVPVFSQVPVRRRLCPPPPRTGPCRQRAVMETIAVGCTCIF
